T1: gD-GPI CD248 transiently expressed on cells (UniProt Q9HCU0 18-687, glycosylphosphatidylinositol (GPI) lipid anchor)
T1 sequence: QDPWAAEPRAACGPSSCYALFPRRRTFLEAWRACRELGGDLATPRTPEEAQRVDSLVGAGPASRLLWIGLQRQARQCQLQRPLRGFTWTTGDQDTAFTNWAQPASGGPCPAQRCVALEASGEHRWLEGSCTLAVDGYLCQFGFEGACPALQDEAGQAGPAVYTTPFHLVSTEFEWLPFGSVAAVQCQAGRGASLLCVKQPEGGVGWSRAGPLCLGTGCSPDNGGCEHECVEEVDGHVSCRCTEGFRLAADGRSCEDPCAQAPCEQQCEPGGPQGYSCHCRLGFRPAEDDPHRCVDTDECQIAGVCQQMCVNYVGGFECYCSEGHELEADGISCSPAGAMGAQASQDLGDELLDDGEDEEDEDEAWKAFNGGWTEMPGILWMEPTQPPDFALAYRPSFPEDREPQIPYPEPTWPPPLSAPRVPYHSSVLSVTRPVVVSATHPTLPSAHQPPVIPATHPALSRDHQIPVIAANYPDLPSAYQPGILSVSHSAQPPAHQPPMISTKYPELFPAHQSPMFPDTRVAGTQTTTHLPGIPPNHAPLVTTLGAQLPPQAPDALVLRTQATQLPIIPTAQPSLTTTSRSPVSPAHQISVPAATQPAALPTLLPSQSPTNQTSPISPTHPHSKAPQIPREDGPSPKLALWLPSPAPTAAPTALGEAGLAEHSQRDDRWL

T2: full-length CD248 transiently expressed on cells (UniProt Q9HCU0 18-757)
T2 sequence: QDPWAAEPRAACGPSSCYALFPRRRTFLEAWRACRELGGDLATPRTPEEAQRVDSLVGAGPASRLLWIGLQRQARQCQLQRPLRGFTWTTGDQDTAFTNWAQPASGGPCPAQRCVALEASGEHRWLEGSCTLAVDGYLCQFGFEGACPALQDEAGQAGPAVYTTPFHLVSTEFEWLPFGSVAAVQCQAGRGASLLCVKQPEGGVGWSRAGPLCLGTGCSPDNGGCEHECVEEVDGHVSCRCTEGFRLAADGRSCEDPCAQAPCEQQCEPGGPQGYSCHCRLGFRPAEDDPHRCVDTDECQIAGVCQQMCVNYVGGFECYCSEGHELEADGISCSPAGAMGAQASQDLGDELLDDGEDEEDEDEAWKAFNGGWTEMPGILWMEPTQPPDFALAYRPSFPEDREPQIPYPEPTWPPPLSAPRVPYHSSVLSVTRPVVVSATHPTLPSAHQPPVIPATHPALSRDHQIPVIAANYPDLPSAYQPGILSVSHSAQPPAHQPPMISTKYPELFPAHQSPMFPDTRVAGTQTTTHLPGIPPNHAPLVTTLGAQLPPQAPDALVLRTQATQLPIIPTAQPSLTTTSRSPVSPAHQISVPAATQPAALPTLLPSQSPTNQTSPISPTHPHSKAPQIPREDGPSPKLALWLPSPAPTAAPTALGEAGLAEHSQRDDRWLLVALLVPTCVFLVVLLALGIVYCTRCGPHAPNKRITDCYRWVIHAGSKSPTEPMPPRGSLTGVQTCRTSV

B1: full-length LRRC15 displayed on rEVs (receptor)
chain: YHGCPSECTCSRASQVECTGARIVAVPTPLPWNAMSLQILNTHITELNESPFLNISALIALRIEKNELSRITPGAFRNLGSLRYLSLANNKLQVLPIGLFQGLDSLESLLLSSNQLLQIQPAHFSQCSNLKELQLHGNHLEYIPDGAFDHLVGLTKLNLGKNSLTHISPRVFQHLGNLQVLRLYENRLTDIPMGTFDGLVNLQELALQQNQIGLLSPGLFHNNHNLQRLYLSNNHISQLPPSVFMQLPQLNRLTLFGNSLKELSPGIFGPMPNLRELWLYDNHISSLPDNVFSNLRQLQVLILSRNQISFISPGAFNGLTELRELSLHTNALQDLDGNVFRMLANLQNISLQNNRLRQLPGNIFANVNGLMAIQLQNNQLENLPLGIFDHLGKLCELRLYDNPWRCDSDILPLRNWLLLNQPRLGTDTVPVCFSPANVRGQSLIIINVNVAVPSVHVPEVPSYPETPWYPDTPSYPDTTSVSSTTELTSPVEDYTDLTTIQVTDDRSVWGMTQAQSGLAIAAIVIGIVALACSLAACVGCCCCKKRSQAVLMQMKAPNEC
B2: gD-GPI–tagged LRRC15 ectodomain displayed on rEVs (domain or fragment)
chain: YHGCPSECTCSRASQVECTGARIVAVPTPLPWNAMSLQILNTHITELNESPFLNISALIALRIEKNELSRITPGAFRNLGSLRYLSLANNKLQVLPIGLFQGLDSLESLLLSSNQLLQIQPAHFSQCSNLKELQLHGNHLEYIPDGAFDHLVGLTKLNLGKNSLTHISPRVFQHLGNLQVLRLYENRLTDIPMGTFDGLVNLQELALQQNQIGLLSPGLFHNNHNLQRLYLSNNHISQLPPSVFMQLPQLNRLTLFGNSLKELSPGIFGPMPNLRELWLYDNHISSLPDNVFSNLRQLQVLILSRNQISFISPGAFNGLTELRELSLHTNALQDLDGNVFRMLANLQNISLQNNRLRQLPGNIFANVNGLMAIQLQNNQLENLPLGIFDHLGKLCELRLYDNPWRCDSDILPLRNWLLLNQPRLGTDTVPVCFSPANVRGQSLIIINVNVAVPSVHVPEVPSYPETPWYPDTPSYPDTTSVSSTTELTSPVEDYTDLTTIQVTDDRSVWGMTQAQSG
modifications: glycosylphosphatidylinositol (GPI) lipid anchor

Legend:
Assay in all cases: fluorescence microscopy of rEV binding to transfected cells
[1] = target: gD-GPI CD248 transiently expressed on cells (UniProt Q9HCU0)
[2] = target: T1, gD-GPI CD248 transiently expressed on …
[3] = target: T2, full-length CD248 transiently expressed …

Molecule | fold binding over cells transfected with an empty vector control [1] [fold] | fold binding over cells transfected with an empty vector control [2] [fold] | fold binding over cells transfected with an empty vector control [3] [fold]
gD-GPI–tagged LRRC15 ectodomain displayed on rEVs (from UniProt Q8TF66 22-538) (domain or fragment) | > 10 | – | –
B1 | – | > 10 | > 10
B2 | – | – | > 10

Source: article PMC8488672 (Proceedings of the National Academy of Sciences of the …, 2021)
